Data published in paper PMC11059233.

What follows are substances tested against HLA-B*07:02 expressed in C1R cells (C1R.B*07:02) (human | human (endogenous in C1R)).

Going from influenza B virus HA_(255-263) peptide to influenza B virus NP_(30-38) peptide, the IFN-γ+TNF+ CD8+ T cells (expanded with pool H) after restimulation with peptide-pulsed C1R.B*07:02; donors responding rises from 2 of 10 donors to 7 of 10 donors.

Compared with influenza B virus NP_(233-244) peptide, influenza B virus NS1_(196-206) peptide is lower in IFN-γ+TNF+ CD8+ T cells (expanded with pool H) after restimulation with peptide-pulsed C1R.B*07:02; donors responding: 9 of 10 donors for the first, 6 of 10 donors for the second.

What follows are substances tested against HLA-B*08:01 expressed in C1R cells (C1R.B*08:01) (human | human (endogenous in C1R)).

Going from influenza B virus NP_(30-38) peptide to influenza B virus NP_(92-99) peptide, the IFN-γ+TNF+ CD8+ T cells (expanded with pool I) after restimulation with peptide-pulsed C1R.B*08:01; donors responding rises from 5 of 9 donors to 6 of 9 donors.

influenza B virus NP_(479-487) peptide was tested, and the IFN-γ+TNF+ CD8+ T cells (expanded with pool I) after restimulation with peptide-pulsed C1R.B*08:01; donors responding was 4 of 9 donors.

What follows are substances tested against HLA-B*35:01 expressed in C1R cells (C1R.B*35:01) (human | human (endogenous in C1R)).

Going from influenza B virus HA_(231-239) peptide to influenza B virus NS1_(260-268) peptide, the IFN-γ+TNF+ CD8+ T cells (expanded with pool J) after restimulation with peptide-pulsed C1R.B*35:01; donors responding rises from 3 of 6 donors to 5 of 6 donors.
